# Assay results from publication PMC3395577.
# B1: BGL (β-glucosidase, Tthe_1813) (Thermoanaerobacterium thermosaccharolyticum DSM 571) (protein)
# chain: MSDFNKDFLFGVATASYQVEGAYNEDGRSMSIWDTFCRQDGKVYKGHNGDVACDHYHLYKDDVKMMKDLGIEAYRFSIAWPRIFPEKGHYNPKGIDFYKRLTDELLKNDIKPFVTIYHWDLPQWADDLGGWLNREVVDWFGEYVSKLFNELGGYIRNWITLNEPWCSSFLSYFIGEHAPGHKDLGEAVLVSHNLLLAHGKAVEIFRDINSSDSKIGITLNLNEVFPATDSPEDKAAARIADGFQNRWFLDPIFKGEYPKDMLELFGKYAKTDFITDGDLKRISQKLDFLGVNYYTRAVVKKGNDGILNAEQIDVDNEKTEMGWEVYPESLYNILMRLKNEYTFDLPLYITENGAAYKDVVSDDGHVHDEKRVEFLKKHFKQAKRFIDDGGNLRGYFVWSLMDNFEWAHGYSKRFGIVYVDYETEKRILKDSALWYKNLISTRTI
# Substrate: O=[N+]([O-])c1ccc(O[C@@H]2O[C@H](CO)[C@@H](O)[C@H](O)[C@H]2O)cc1
# Assay: purified protein
# Settings: 50 mM imidazole-potassium buffer pH 6.4, 70°C, Table 2 prints 0.63
protein,measurement,value
B1,Km,620 µM
